Series [1] deals with T1, trADAMTS-13^V313A (truncated ADAMTS-13 mutant, Val313 to Ala).
T1 chain: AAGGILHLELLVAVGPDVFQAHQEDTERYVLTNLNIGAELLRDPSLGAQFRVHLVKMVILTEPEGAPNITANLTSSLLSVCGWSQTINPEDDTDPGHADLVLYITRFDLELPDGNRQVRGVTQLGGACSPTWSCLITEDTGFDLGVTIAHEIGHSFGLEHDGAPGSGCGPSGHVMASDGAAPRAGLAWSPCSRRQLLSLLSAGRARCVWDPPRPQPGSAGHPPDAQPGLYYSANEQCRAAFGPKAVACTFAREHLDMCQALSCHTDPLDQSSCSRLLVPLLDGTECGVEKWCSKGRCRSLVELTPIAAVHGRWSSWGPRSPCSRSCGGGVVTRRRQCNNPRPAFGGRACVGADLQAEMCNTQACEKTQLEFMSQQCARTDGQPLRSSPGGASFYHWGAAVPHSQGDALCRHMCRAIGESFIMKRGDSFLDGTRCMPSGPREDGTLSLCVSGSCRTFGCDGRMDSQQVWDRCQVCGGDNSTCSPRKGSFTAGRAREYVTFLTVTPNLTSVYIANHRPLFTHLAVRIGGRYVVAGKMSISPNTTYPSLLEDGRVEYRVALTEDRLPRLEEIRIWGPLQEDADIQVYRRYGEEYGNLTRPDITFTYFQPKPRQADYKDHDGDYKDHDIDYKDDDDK

The target in series [2] is T2, trADAMTS-13^V313D (truncated ADAMTS-13 mutant, Val313 to Asp).
T2 chain: T1 chain with A239D

The target in series [3] is T3, trADAMTS-13^R312A (truncated ADAMTS-13 mutant, Arg312 to Ala).
T3 chain: T1 chain with R238A, A239V

Positions count from the first letter of the chain named.

B1: tissue plasminogen activator (tPA) (protein)
chain: SYQVICRDEKTQMIYQQHQSWLRPVLRSNRVEYCWCNSGRAQCHSVPVKSCSEPRCFNGGTCQQALYFSDFVCQCPEGFAGKCCEIGNSDCYFGNGSAYRGTHSLTESGASCLPWNSMILIGKVYTAQNPSAQALGLGKHNYCRNPDGDAKPWCHVLKNRRLTWEYCDVPSCSTCGLRQYSQPQFRIKGGLFADIASHPWQAAIFAKHRRSPGERFLCGGILISSCWILSAAHCFQERFPPHHLTVILGRTYRVVPGEEEQKFEVEKYIVHKEFDDDTYDNDIALLQLKSDSSRCAQESSVVRTVCLPPADLQLPDWTECELSGYGKHEALSPFYSERLKEAHVRLYPSSRCTSQHLLNRTVTDNMLCAGDTRSGGPQANLHDACQGDSGGPLVCLNDGRMTLVGIISWGLGCGQKDVPGVYTKVTNYLDWIRDNMRP
Consider B1, for which the “residual proteolytic activity on vWF after 6 hours with or without tPA” value in series [1] is “tPA inhibited the proteolytic activity of trADAMTS-13^R312A and trADAMTS-13^V313A variants on vWF (FIG. 8)”; in series [2], “trADAMTS-13^R312K and trADAMTS-13^V313D variants were resistant to inactivation by tPA”; in series [3] it was “tPA inhibited the proteolytic activity of trADAMTS-13^R312A and trADAMTS-13^V313A variants on vWF (FIG. 8)”.

Source of the values: patent US20230295597.
